Article PMC13016609, “UV irradiation alters TFAM binding specificity and compaction of DNA”

Legend:
Conditions in all cases: protein: recombinant; label: 5' 6-FAM on strand 1; blunt
TFAM (no MTS) [1] = biological target: T1, TFAM (no MTS) (Homo sapiens, UniProt Q00059 43-246); test: fluorescence anisotropy; +UVC; Hill n 2.19±0.06; FP: 25 mM HEPES, 10 mM Mg(OAc)2, 25 mM NaOAc, 75 mM KOAc, pH 7.5, 1 nM DNA, TFAM 0-15 nM diluted on ice (read temperature not stated); AFM oligos: on ice, 2 min
T1 sequence: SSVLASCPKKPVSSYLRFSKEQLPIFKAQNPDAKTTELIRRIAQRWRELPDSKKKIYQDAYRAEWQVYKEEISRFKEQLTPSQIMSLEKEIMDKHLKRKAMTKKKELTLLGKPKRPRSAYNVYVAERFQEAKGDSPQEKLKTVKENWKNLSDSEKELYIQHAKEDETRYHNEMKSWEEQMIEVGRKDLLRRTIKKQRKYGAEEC

TFAM (no MTS) [2] = biological target: T1, TFAM (no MTS); test: fluorescence anisotropy; Hill n 2.46±0.23; FP: 25 mM HEPES, 10 mM Mg(OAc)2, 25 mM NaOAc, 75 mM KOAc, pH 7.5, 1 nM DNA, TFAM 0-15 nM diluted on ice (read temperature not stated); AFM oligos: on ice, 2 min
TFAM (no MTS) [3] = biological target: T1, TFAM (no MTS); test: fluorescence anisotropy; +UVC; Hill n 2.33±0.10; FP: 25 mM HEPES, 10 mM Mg(OAc)2, 25 mM NaOAc, 75 mM KOAc, pH 7.5, 1 nM DNA, TFAM 0-15 nM diluted on ice (read temperature not stated); AFM oligos: on ice, 2 min
TFAM (no MTS) [4] = biological target: T1, TFAM (no MTS); test: fluorescence anisotropy; Hill n 2.07±0.07; FP: 25 mM HEPES, 10 mM Mg(OAc)2, 25 mM NaOAc, 75 mM KOAc, pH 7.5, 1 nM DNA, TFAM 0-15 nM diluted on ice (read temperature not stated); AFM oligos: on ice, 2 min
TFAM (no MTS) [5] = biological target: T1, TFAM (no MTS); test: fluorescence anisotropy; +UVC; Hill n 2.12±0.28; FP: 25 mM HEPES, 10 mM Mg(OAc)2, 25 mM NaOAc, 75 mM KOAc, pH 7.5, 1 nM DNA, TFAM 0-15 nM diluted on ice (read temperature not stated); AFM oligos: on ice, 2 min

B1: ND3_92 +UVC (dsDNA)
DNA 1: TTAGTAGCTATTACCTTCTTATTATTTGATCTA
DNA 2: TAGATCAAATAATAAGAAGGTAATAGCTACTAA
modifications: UVC 1500 J/m2 photolesions (positions undefined)
TFAM (no MTS) [1]
  Kd: 5.54 ± 0.14 nM

B2: RNR2_619 (dsDNA)
DNA 1: ATTGATCCAATAACTTGACCAACGGAACAAGTT
DNA 2: AACTTGTTCCGTTGGTCAAGTTATTGGATCAAT
TFAM (no MTS) [2]
  Kd: 4.89 ± 0.33 nM

B3: RNR2_619 +UVC (dsDNA)
DNA 1: B2 DNA 1
DNA 2: B2 DNA 2
modifications: UVC 1500 J/m2 photolesions (positions undefined)
TFAM (no MTS) [3]
  Kd: 8.13 ± 0.39 nM

B4: COX1_27 (dsDNA)
DNA 1: AAGACATTGGAACACTATACCTATTATTCGGCG
DNA 2: CGCCGAATAATAGGTATAGTGTTCCAATGTCTT
TFAM (no MTS) [4]
  Kd: 6.09 ± 0.43 nM

B5: COX1_27 +UVC (dsDNA)
DNA 1: B4 DNA 1
DNA 2: B4 DNA 2
modifications: UVC 1500 J/m2 photolesions (positions undefined)
TFAM (no MTS) [5]
  Kd: 5.9 ± 0.1 nM
